Source: patent US20180118821A1 (Eli Lilly, published 2018)
Positions count from the first letter of the chain named. Like-named read-outs stand apart in the source and are kept apart here. Blank lines part the entries; values can stand above or below the molecule they belong to.

Columns and labels:
[1] = target: Cynomolgus monkey IL-33 (cynomolgus monkey); experiment: cell-based or functional assay
[2] = target: T1, Human IL-33 (human, UniProt O95760 95-270, limits assumed); experiment: cell-based or functional assay
T1 sequence: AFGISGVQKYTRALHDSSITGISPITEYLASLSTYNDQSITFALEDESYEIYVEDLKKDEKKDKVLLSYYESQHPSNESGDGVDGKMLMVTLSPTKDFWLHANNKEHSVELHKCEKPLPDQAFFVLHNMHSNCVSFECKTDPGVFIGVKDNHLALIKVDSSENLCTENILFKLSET

[3] = target: T1, Human IL-33; experiment: cell-based or functional assay; remark: listed apart in the source
[4] = target: T1, Human IL-33; experiment: cell-based or functional assay; remark: listed apart in the source
[5] = target: T2, Cynomolgus monkey IL-33 (cynomolgus monkey, UniProt A0A2K5W3I1 95-269); experiment: cell-based or functional assay
T2 sequence: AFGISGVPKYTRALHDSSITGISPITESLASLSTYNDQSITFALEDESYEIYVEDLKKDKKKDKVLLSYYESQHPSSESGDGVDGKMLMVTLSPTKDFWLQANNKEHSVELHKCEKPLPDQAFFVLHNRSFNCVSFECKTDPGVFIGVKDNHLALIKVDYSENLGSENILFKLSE

[6] = target: T3, IL-1α (human, UniProt P01583 113-271); experiment: SPR (BIAcore 2000), antibody captured on Protein A, analyte at 500 nM
T3 sequence (looked up): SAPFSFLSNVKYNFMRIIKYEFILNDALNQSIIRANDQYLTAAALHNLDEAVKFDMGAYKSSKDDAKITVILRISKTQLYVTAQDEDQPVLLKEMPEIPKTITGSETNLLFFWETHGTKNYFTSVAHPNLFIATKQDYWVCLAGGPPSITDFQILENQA
Description: (§1) Protein A (Calbiochem) is coupled via free amine groups to carboxyl groups on flow cells 1 and 2 of a CM5 biosensor chip (GE Healthcare) using a mixture of N-ethyl-N-(dimethylaminopropyl)-carbodiimide (EDC) and N-hydroxysuccinimide (NHS). To capture positive control antibodies, Rabbit anti-Goat IgG (Fc specific) is coupled to flow cell 3, and Rabbit anti-Rat IgG (Fc specific) is coupled to flow cell 4 (both from Jackson ImmunoResearch). Flow cells are monitored with a flow rate of 30 μL/minute using a buffer containing 0.01 M HEPES, pH 7.4, 150 mM NaCl, 0.005% surfactant P20. Antibody 43 is captured on flow cell 2 to yield a total of 300 to 800 response units (RU; results reflect flow cell 2 minus flow cell 1). Binding tests are followed by a regeneration step using glycine-HCl (pH 1.5) between each cycle. Flow cell 1 is used as a control to monitor non-specific binding of analytes tested. The exemplified antibody is tested with all analytes of the human IL-1 protein family as listed at 500 nM concentration.

[7] = target: IL-1β (human, UniProt P01584 117-269); experiment: as above
Description: as §1

[8] = target: IL-1RA (human, UniProt P18510 26-177); experiment: as above
IL-1RA, sequence (P18510 26-177 limits assumed): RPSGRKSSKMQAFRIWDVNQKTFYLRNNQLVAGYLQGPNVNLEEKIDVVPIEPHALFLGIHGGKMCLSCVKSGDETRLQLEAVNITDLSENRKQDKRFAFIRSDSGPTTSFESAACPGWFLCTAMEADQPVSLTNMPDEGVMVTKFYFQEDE
Description: as §1

[9] = target: T4, IL-18 (human, UniProt Q14116 37-193); experiment: as above
T4 sequence (looked up): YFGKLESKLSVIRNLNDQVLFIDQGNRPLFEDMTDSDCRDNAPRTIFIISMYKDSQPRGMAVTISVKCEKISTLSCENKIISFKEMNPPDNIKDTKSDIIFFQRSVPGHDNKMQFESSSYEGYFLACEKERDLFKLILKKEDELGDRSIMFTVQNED
Description: as §1

[10] = target: T5, IL-36α (human, UniProt Q9UHA7 6-158); experiment: as above
T5 sequence (looked up): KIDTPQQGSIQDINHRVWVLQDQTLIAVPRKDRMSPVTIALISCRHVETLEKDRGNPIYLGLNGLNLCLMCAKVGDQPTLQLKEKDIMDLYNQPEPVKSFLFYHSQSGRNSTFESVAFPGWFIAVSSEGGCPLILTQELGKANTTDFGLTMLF
Description: as §1

[11] = target: T6, IL-36β (human, UniProt Q9NZH7-2 5-157); experiment: as above
T6 sequence (looked up): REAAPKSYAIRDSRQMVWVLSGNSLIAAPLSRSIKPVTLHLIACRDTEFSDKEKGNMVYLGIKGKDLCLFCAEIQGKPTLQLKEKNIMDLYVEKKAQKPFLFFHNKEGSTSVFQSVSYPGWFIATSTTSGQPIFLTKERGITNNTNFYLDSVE
Description: as §1

[12] = target: T7, IL-36γ (human, UniProt Q9NZH8 18-169); experiment: as above
T7 sequence (looked up): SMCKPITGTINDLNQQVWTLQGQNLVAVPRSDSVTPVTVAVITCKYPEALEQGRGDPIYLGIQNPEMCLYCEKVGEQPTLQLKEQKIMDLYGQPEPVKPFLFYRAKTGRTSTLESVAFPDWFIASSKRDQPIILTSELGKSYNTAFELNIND
Description: as §1

[13] = target: T8, IL-36RA (human, UniProt Q9UBH0 2-155); experiment: as above
T8 sequence (looked up): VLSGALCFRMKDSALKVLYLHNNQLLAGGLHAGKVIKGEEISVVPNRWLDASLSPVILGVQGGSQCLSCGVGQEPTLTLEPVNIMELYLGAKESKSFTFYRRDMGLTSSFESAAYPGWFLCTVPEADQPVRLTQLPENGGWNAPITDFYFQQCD
Description: as §1

[14] = target: T9, IL-37 (human, UniProt Q9NZH6 46-218, limits assumed); experiment: as above
T9 sequence (looked up): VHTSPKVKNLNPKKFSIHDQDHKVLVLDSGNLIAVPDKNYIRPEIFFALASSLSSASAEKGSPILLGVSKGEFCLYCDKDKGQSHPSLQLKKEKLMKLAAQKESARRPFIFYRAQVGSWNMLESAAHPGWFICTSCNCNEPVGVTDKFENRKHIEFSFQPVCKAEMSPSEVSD
Description: as §1

[15] = target: T1, Human IL-33; experiment: SPR (Biacore T100/T200), antibody captured on Protein A, 37° C., 1:1 model
Description: (§2) A CM4 chip containing immobilized Protein A (generated using standard NHS-EDC amine coupling) on all four flow cells (Fc) is used to employ a capture method. Antibody samples are prepared at 10 μg/mL in running buffer. Mouse, rat, and rabbit IL-33 samples are prepared at final concentrations of 1000, 500, 250, 125, 63, 31, 16, and 0 nM in running buffer. Human and Cynomologus IL-33 samples are prepared at final concentrations of 250, 125, 63, 31, 16, 8, 4, 2, 1, and 0 nM in running buffer. Each analysis cycle involves the steps of (1) capturing antibody samples on separate flow cells (Fc2, Fc3, or Fc4); (2) injecting 200 μL of IL-33 over all flow cells at 100 μL/min; (3) returning to buffer flow for a minimum of 10 min at 100 μL/min to monitor complex dissociation; (4) regenerating the chip surface with two sequential injections of 7.5 microliters of glycine, pH1.5; and (5) equilibrating the chip surface for 5 minutes prior to repeating the cycle. Each IL-33 concentration is injected in duplicate. Data is processed using standard double-referencing and fit to a 1:1 binding model using Biacore T100 Evaluation software, version 2.0.1, to determine the association rate (on-rate, kₒₙ, M⁻¹s⁻¹ units) and the dissociation rate (off-rate, koff, s⁻¹ units). The equilibrium dissociation constant (KD) is calculated from the relationship KD=koff/kₒₙ, and is in molar units. Three experimental replicates (n) are conducted for the binding of Antibody 43 to human and cynomolgus monkey IL-33.

[16] = target: T2, Cynomolgus monkey IL-33; experiment: as above
Description: as §2

[17] = target: T2, Cynomolgus monkey IL-33; experiment: SPR affinities
Description: as §2, with “Three experimental replicates (n) are conducted for the binding of Antibody 43 to human and cynomolgus monkey IL-33.” left out

[18] = target: T1, Human IL-33; experiment: SPR (Biacore), antibody captured on Protein A, 37° C., 1:1 model
Description: as §2

[19] = target: T2, Cynomolgus monkey IL-33; experiment: as above
Description: as §2

IC50 in the in vitro NFκB-GEC-luciferase activity assay [1]: 175 pM | IC50 in the in vitro NFκB-GEC-luciferase activity assay [2]: 426 pM | IC50 of inhibition of IL-33-induced GM-CSF secretion from human mast cells [2]: 7.6 nM
Molecule: Human monomeric ST2 (IL1RL1) (from UniProt Q01638 19-328) (receptor)

IC50 of inhibition of IL-33-induced GM-CSF secretion from human mast cells [3]: 0.3 nM | IC50 in the in vitro NFκB-GEC-luciferase activity assay [4]: 330 pM | IC50 in the in vitro NFκB-GEC-luciferase activity assay [5]: 1920 pM | binding result [6]: no binding (tested: 500 nM) | binding result [7]: no binding (tested: 500 nM) | binding result [8]: no binding (tested: 500 nM) | binding result [9]: no binding (tested: 500 nM) | binding result [10]: no binding (tested: 500 nM) | binding result [11]: no binding (tested: 500 nM) | binding result [12]: no binding (tested: 500 nM) | binding result [13]: no binding (tested: 500 nM) | binding result [14]: no binding (tested: 500 nM) | Kd [15]: 0.049 nM | koff [15]: 7.2e-05 s⁻¹ | kon [15]: 1.5e+06 M⁻¹ s⁻¹ | Kd [16]: 0.338 nM | koff [16]: 0.00051 s⁻¹ | kon [16]: 1.5e+06 M⁻¹ s⁻¹
B1: Antibody 43 (antibody, human IgG4 S228P, kappa, F234A L235A, V domains shown)
VH: EVQLVETGGGLIQPGGSLRLSCAASGFTFSFYAMSWVRQAPGKGLEWVSAISGSGGSTYYADSVKGRFTISRDNSKNTLYLQMNSLRAEDTAVYYCARTIHGIRAAYDAFIIWGQGTLVTVSS
VL: EIVLTQSPGTLSLSPGERATLSCRASQSVGINLSWYQQKPGQAPRLLIYGASHRLTGIPDRFSGSGSGTDFTLTISRLEPEDFAVYYCHQYSQPPPFTFGGGTKVEIKR
notes: Derived from Antibody 54 by engineering to reduce potential immunogenicity; expressed in CHO cells; also called Ab 43; Exemplified Antibody

fold difference in species cross-reactivity (affinity to cynomolgus IL-33 against human IL-33) [17]: ~850 fold | IC50 in the in vitro NFκB-GEC-luciferase activity assay [4]: 286 pM | Kd [18]: 0.0145 nM | koff [18]: 2.6e-05 s⁻¹ | kon [18]: 1.7e+06 M⁻¹ s⁻¹ | Kd [19]: 12.4 nM | koff [19]: 0.019 s⁻¹ | kon [19]: 1.7e+06 M⁻¹ s⁻¹
B2: Antibody 75 (antibody, human IgG4 S228P, kappa, F234A L235A, V domains shown)
VH: B1 VH with F31S, I100L
VL: B1 VL with L55A, P94S
notes: Human IgG4 antibody; 3-53 heavy chain framework and A27 light chain framework with the CDRs of Antibody 23; also called Ab 75
